# In PMC6166816 (Proceedings of the National Academy of Sciences of the …, 2018):
# “And” between values parts separate entries of the source, which are not always exact repeats. Equal values may be shown once.
# T1: MNoV (MNV1) strain CW3 VP1 protruding (P) domain (murine norovirus (MNV1 strain CW3), UniProt Q80J94 229-540)
# T1 sequence: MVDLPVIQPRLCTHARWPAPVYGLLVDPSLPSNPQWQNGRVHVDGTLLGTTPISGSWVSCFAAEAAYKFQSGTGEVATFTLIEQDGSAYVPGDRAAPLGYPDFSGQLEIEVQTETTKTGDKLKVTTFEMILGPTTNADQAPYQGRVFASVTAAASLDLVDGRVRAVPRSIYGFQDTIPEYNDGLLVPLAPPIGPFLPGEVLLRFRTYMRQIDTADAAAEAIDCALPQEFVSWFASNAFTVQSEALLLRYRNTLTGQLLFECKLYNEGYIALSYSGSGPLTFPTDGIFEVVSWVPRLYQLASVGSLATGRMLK
# B1: Fc–CD300lf fusion protein (Fc fusion)
# chain: EDPVTGPEEVSGQEQGSLTVQCRYTSGWKDYKKYWCQGVPQRSCKTLVETDASEQLVKKNRVSIRDNQRDFIFTVTMEDLRMSDAGIYWCGITKGGLDPMFKVTVNIGP
# B2: murine CD300lf ectodomain (receptor)
# chain: MAEDPVTGPEEVSGQEQGSLTVQCRYTSGWKDYKKYWCQGVPQRSCKTLVETDASEQLVKKNRVSIRDNQRDFIFTVTMEDLRMSDAGIYWCGITKGGLDPMFKVTVNIGPVPT
# Tests used:
# [1] = biological target: T1, MNoV (MNV1) strain CW3 VP1 protruding …; experiment: BLI
# [2] = biological target: T1, MNoV (MNV1) strain CW3 VP1 protruding …; experiment: ITC
# [3] = biological target: T1, MNoV (MNV1) strain CW3 VP1 protruding …; experiment: SPR
Binder,Kd [1],Kd [2],stoichiometry N [2],Kd [3]
B1,0.54 µM,,,
B2,,24.5 µM and ~24.3 µM and 12 µM,~1,219 µM
